The values that follow come from publication doi:10.1101/2020.05.04.076331.

In assay [1] the target is ^FSClpX (TAMRA-labelled single-chain E. coli ^C169SClpX^ΔN pseudohexamer) (E. coli). Put plainly: other fluorescence titration.
Assay [2] addresses ^FSClpXP (^FSClpX with ClpP) (E. coli) (UniProt P0A6G7). Put plainly: other fluorescence titration.
Assay [3] shares this target. Put plainly: stopped-flow fluorescence quenching.
The target is the same in assay [4]. In words: stopped-flow fluorescence quenching. The source holds these as a separate data set.
Assay [5] has as its target ^FSClpX (TAMRA-labelled single-chain E. coli ^C169SClpX^ΔN pseudohexamer) (E. coli). Put plainly: other fluorescence titration. This is another data set of the same source.
Assay [6] concerns the target ^FSClpXP (^FSClpX with ClpP) (E. coli) (UniProt P0A6G7). Put plainly: other fluorescence titration. The source holds these as a separate data set.

Like-named read-outs stand apart in the source and are kept apart here.

For orientation: Kd means the concentration at which binding is half-saturated. A lower Kd goes with a tighter complex.

Chain of UniProt P0A6G7 (P0A6G7 whole entry, looked up): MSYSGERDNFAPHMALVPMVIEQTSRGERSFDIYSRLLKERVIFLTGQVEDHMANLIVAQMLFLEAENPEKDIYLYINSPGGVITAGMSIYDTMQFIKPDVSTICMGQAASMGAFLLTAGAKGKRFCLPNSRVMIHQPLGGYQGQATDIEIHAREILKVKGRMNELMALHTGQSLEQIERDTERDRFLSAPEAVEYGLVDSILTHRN

Consider “titin-BQ-ssrA (ssrA-tagged I27 domain of human titin labelled with the BHQ-10 quencher) (domain or fragment)”, for which the dissociation constant Kd in assay [1] was 59 nM; in assay [2] it was 30 to 100 nM; in assay [5], 110 nM; in assay [6], 60 nM. Also, the time constant of dissociation, fast phase was 3 s in assay [3] and 2 s in assay [4]. The values for the time constant of dissociation, slow phase in assay [3] and in assay [4] were 50 s and 240 s, respectively.

For “^UFtitin-BQ-ssrA (titin-BQ-ssrA unfolded by carboxymethylation of otherwise-buried cysteines) (domain or fragment)”, the Kd in assay [1] was found to be 90 nM; in assay [5], 550 nM.
